In patent US20130245238A1 (Bristol-Myers Squibb, published 2013):

T1: biotinylated murine IL-17 (murine, UniProt Q62386 26-158, limits assumed, biotinylated (site not stated))
T1 construct: Used at 2.5 nM in the Alphascreen assay; also called interleukin 17
T1 sequence (looked up): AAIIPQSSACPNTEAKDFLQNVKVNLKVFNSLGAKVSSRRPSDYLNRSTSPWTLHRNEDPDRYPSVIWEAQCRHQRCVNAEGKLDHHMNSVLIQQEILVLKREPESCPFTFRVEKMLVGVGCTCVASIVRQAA

T2: human PXR-GST (Invitrogen) (human, UniProt O75469 111-434, limits assumed)
T2 construct: Captured on an anti-GST antibody chip; the whole natural protein is named; also called GST-PXR; GST-tagged PXR; not shown: GST tag
T2 sequence (looked up): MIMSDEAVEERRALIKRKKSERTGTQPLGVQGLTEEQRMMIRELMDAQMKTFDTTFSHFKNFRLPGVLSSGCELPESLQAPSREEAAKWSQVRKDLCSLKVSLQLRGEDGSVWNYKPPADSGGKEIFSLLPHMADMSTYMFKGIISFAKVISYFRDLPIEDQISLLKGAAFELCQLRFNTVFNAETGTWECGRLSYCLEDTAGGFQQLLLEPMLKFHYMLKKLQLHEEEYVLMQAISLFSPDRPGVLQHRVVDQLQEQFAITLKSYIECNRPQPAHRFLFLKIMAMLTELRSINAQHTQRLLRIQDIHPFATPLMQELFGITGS

B1: scaffold region peptide of SEQ ID NO: 53 (peptide)
peptide: MGEVVAATPTSLLIS
notes: Synthetic peptide; also called wildtype scaffold region segment N-terminal to the BC loop
B2: scaffold region peptide of SEQ ID NO: 54 (peptide)
peptide: PHFPTRYYRITYGETGGNS
notes: Synthetic peptide from an engineered ^10Fn3 domain; also called modified scaffold region segment C-terminal to the BC loop
B3: BC loop peptide (SEQ ID NO: 58) (peptide)
peptide: PTSLLISWDAPAVTVRYYRITYG
notes: Synthetic peptide; also called BC loop region cluster
B4: non-binding control ^10Fn3 molecule (SEQ ID NO: 6 with an additional MG at the N-terminus and RGD changed to RGE) (designed binder)
chain: MGVSDVPRDLEVVAATPTSLLISWDAPAVTVRYYRITYGETGGNSPVQEFTVPGSKSTATISGLKPGVDYTITVYAVTGRGESPASSKPISINYRT
B5: WS-LI1 binder having the sequence of SEQ ID NO: 3 (designed binder)
chain: MGVSDVPRDLEVVAATPTSLLISWDAPAVTVRYYRITYGEQHSKYPHQEFTVPGSKSTATISGLKPGVDYTITVYAVTIQPQDPEQDYQYHYYETSSKPISINYRTEIDKPSQ
notes: Modified ^10Fn3 domain (CD and FG loops)
B6: WS-LI1 binder having the sequence of SEQ ID NO: 4 (designed binder)
chain: MGVSDVPRDLEVVAATPTSLLISWDAPAVTVRYYRITYGEHVADHFDHNQEFTVPGSKSTATISGLKPGVDYTITVYAVTYQFQDPEEHYYYHFYDSSSKPISINYRTEIDKPSQ
notes: as for B5
B7: WS-LI1 binder having the sequence of SEQ ID NO: 5 (designed binder)
chain: MGVSDVPRDLEVVAATPTSLLISWDAPAVTVRYYRITYGEYHEHYHSPGFSQKYHYEQEFTVPGSKSTATISGLKPGVDYTITVYAVTGHKHYHYYYYYHHHSSKPISINYRTEIDKPSQ
notes: as for B5
B8: WS-LI1 binder having the sequence of SEQ ID NO: 45 (designed binder)
chain: MGVSDVPRDLEVVAATPTSLLISWDAPAVTVRYYRITYGEYHAFFASNGKYYFYIQEFTVPGSKSTATISGLKPGVDYTITVYAVTDDTVHHGDSNYHSSKPISINYRTEIDKPSQ
notes: as for B5
B9: WS-LI1 binder having the sequence of SEQ ID NO: 46 (designed binder)
chain: MGVSDVPRDLEVVAATPTSLLISWDAPAVTVRYYRITYGEYSSFFQHQGQYYHYIQEFTVPGSKSTATISGLKPGVDYTITVYAVTQHEHSQDSSKPISINYRTEIDKPSQ
notes: as for B5
B10: WS-LI1 binder having the sequence of SEQ ID NO: 47 (designed binder)
chain: MGVSDVPRDLEVVAATPTSLLISWDAPAVTVRYYRITYGEFSQFVHSDGEYYQEYQEFTVPGSKSTATISGLKPGVDYTITVYAVTGQYDQDDEPSSKPISINYRTEIDKPSQ
notes: as for B5
B11: Adnectin-1 (designed binder)
chain: MASTSGSTHYYKGTADLEVVAATPTSLLISWPPPYYVEGVTVFRITYGETGGNSPVQEFTVPYWTETATISGLKPGVDYTITVYAEMYPGSPWAGQVMDIQPISINYRTEGSGSHHHHHH
notes: Isolated from an NP1 library; purified by Ni-agarose
B12: Adnectin-2 (designed binder)
chain: MASTSGVSDVPRDLEVVAATPTSLLISWDAPAVTVNNYRITYQPLLQGSSIQHFDVPGSKSTATISGLKPGVGYQITVYASTYTHSKAYYSLPISIYYRTEGSGSHHHHHH
B13: Adnectin-3 (designed binder)
chain: MASTSGVSDVPRDLEVVAATPTSLLISWDAPAVPVSKYVIYYWPGALISSMQAFKVPGSKSTATISGLKPGVLYSIVVDALTGDGQGSYVWDPITITYRTEGSGSHHHHHH
B14: Adnectin-4 (designed binder)
chain: MASTSGVSDVPRDLEVVAATPTSLLISWDAPAVTVHSYYITYQELQHHSVPQGFQVPGSKSTATISGLKPGVAYQIAVYAFTGPGLPPSDAPPIVIYYRTEGSGSHHHHHH
B15: Adnectin-5 (designed binder)
chain: MGVSDVPRDLEVVAATPTSLLISWKYPYETISYYRITYGETGGNSPVQEFTVPYYRSTATISGLKPGVDYTITVYAVEASAPYSDGGSPISINYRTEIDKPSQHHHHHH
B16: Adnectin-6 (designed binder)
chain: MGVSDVPRDLEVVAATPTSLLISWSRPKGSIKYYRITYGETGGNSPVQEFTVPNSQYTATISGLKPGVDYTITVYAVYGYPYQEPHYYPISINYRTEIDKPSQHHHHHH
B17: Adnectin-7 (designed binder)
chain: MGVSDVPRDLEVVTATPTSLLISWDGPKYYVKYYRITYGETGGNSPVQEFTVPRTDHTATISGLKPGVDYTITVYAVKGQYGPYYGSRPISINYRTEIDKPSQHHHHHH
B18: Adnectin-8 (designed binder)
chain: MGVSDVPRDLEVVAATPTSLLISWSQPGRYVKYYRITYGETGGNSPVQEFTVPNDTYTATISGLKPGVDYTITVYAVYGKYGPYYGYDPISINYRTEIDKPSQHHHHHH

Experiments:
[1] = target: HLA allele molecule DRB*0101 (human); experiment: HLA class II competition binding assay: inhibition of the europium-labeled control peptide, time-resolved fluorescence
[2] = target: HLA allele molecule DRB*1501 (human); experiment: as above
[3] = target: T3, Recombinant human integrin αVβ3 (R&D Systems) (human, UniProt P06756 31-992; P05106 27-718); experiment: SPR (Biacore), integrin amine-coupled to a CM7 chip, binding RU at the end of the injection
T3 construct: Amine-coupled on a CM7 chip; also called integrin AlphaV-Beta3

[4] = target: T4, murine DLL4 (murine, UniProt Q9JI71 28-525, limits assumed); experiment: competitive Biacore; 2 µM binder equilibrated with 20 nM murine DLL4, flowed over immobilised Notch1-Fc
T4 construct: Soluble protein used at 20 nM; construct and source are not described; also called delta-like protein 4

[5] = target: T1, biotinylated murine IL-17; experiment: competitive Alphascreen; 1 µM binder, biotinylated murine IL-17 against murine IL-17RA-Fc
[6] = target: T2, human PXR-GST (Invitrogen); experiment: SPR, Biacore T100; human PXR-GST captured on anti-GST antibody chip;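 also: binding rate constants and Kd derived from kinetic cycles using the Biacore T100 analysis software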

Row | Binder | Kd [6] [nM] | koff [6] [s⁻¹] | kon [6] [M⁻¹ s⁻¹] | other results
1 | B1 |  |  |  | IC50 [1]: 6000 nM; IC50 [2]: < 100 nM
2 | B2 |  |  |  | IC50 [2]: 50000 nM
3 | B3 |  |  |  | IC50 [2]: < 1000 nM
4 | B4 |  |  |  | binding result [3]: no binding (tested: 5 µM)
5 | B5 |  |  |  | % competition of the interaction between Notch1 and murine DLL4 [4]: 100%
6 | B6 |  |  |  | % competition of the interaction between Notch1 and murine DLL4 [4]: 100%
7 | B7 |  |  |  | % competition of the interaction between Notch1 and murine DLL4 [4]: 75%
8 | B8 |  |  |  | % inhibition of the Alphascreen signal [5]: 83%
9 | B9 |  |  |  | % inhibition of the Alphascreen signal [5]: 94%
10 | B10 |  |  |  | % inhibition of the Alphascreen signal [5]: 81%
11 | B11 | 11.4 | 0.00119 | 104000 | 
12 | B12 | 97.8 | 0.00458 | ~46800 | 
13 | B13 | 2.5 | 0.000378 | 162000 | 
14 | B14 | 7.8 | 0.000168 | 21500 | 
15 | B15 | 5.4 | 0.0027 | 509000 | 
16 | B16 | 1.9 | 0.00126 | 680000 | 
17 | B17 | 0.31 | 8.82e-05 | 288000 | 
18 | B18 | 4.4 | 0.000182 | 41700 | 
